The chains are these.
B1: CPEB3 Ribozyme (parent)
chain: UAACAGGGGGCCACAGCAGAAGCGUUCACGUCGCAGCCCCUGUCAGAUUCUGGUGAAUCUGCGAAUUCUGCUGUAUAUCUC

For 167 variants, self-cleavage results are on record in the RNAGym collection of RNA variant scans (doi:10.1093/nar/gkz1192).

This data set covers variants of B1. Briefly: self-cleavage, relative activity (ratio to wild type); higher = more cleavage; in vitro, sequencing. Put shortly: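 Barcoded CPEB3 ribozyme mutants, produced by rounds of error-prone PCR, self-cleaved while being transcribed with T7 RNA polymerase for 5 hours at 37°C and during a subsequent 15 min DNase I step before EDTA was added. Sequencing of template-switched cDNA on Illumina gave cleaved and total reads, and DNA sequencing assigned barcodes to variants. Each variant's relative activity is its cleaved/total read fraction divided by the unmutated ribozyme's fraction, averaged across three batches. A variant needed a minimum of 5 reads.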
On to U31C A35G, for which the self-cleavage came out at 1.21.

With U54G A64U, the self-cleavage was determined as 0.28.

In the case of U26G U69C, the self-cleavage was determined as 0.37.

G24A U31A: the self-cleavage amounted to 0.2.

In the case of A28G C44A, the self-cleavage is 0.12.

For U1C G7C, the self-cleavage is 0.44.

Turning to C11A A64G, the self-cleavage was 0.21.

With U43C G73C, the self-cleavage turned out to be 1.19.

Regarding C40U U72C, the self-cleavage is 0.9.

Take C27U U31C: the self-cleavage is 0.46.

As for U25A C29G, the self-cleavage is 0.25.

In the case of A45G G70A, the self-cleavage is 0.42.

Take A3G A56U: the self-cleavage is 0.64.

As to A56U U72G, the self-cleavage stood at 0.5.

In the case of A64G U67A, the self-cleavage was found to be 0.38.

C34U U67A: the self-cleavage turned out to be 0.42.

Turning to C34U U67G, the self-cleavage is 0.12.

Consider G36A U49C, for which the self-cleavage was 0.21.

Turning to U25C C68A, the self-cleavage turned out to be 0.24.

As to C62U U69A, the self-cleavage turned out to be 0.38.

C14U A20U: the self-cleavage was 0.4.

Regarding A47G U54C, the self-cleavage worked out at 1.01.

As for A3G U66G, the self-cleavage stood at 0.62.

With U31C G55A, the self-cleavage was determined as 0.78.

U72C U80A: the self-cleavage stood at 1.24.

In the case of G36U A45G, the self-cleavage amounted to 0.22.

A15G G53U: the self-cleavage amounted to 1.02.

In the case of G9U U74C, the self-cleavage was found to be 0.32.

In the case of A35G U49A, the self-cleavage was 1.23.

With U49C C50U, the self-cleavage turned out to be 0.87.

Regarding G10U A77U, the self-cleavage stood at 0.07.

For the variant U51C C68U, the self-cleavage is 1.14.

Consider U41A U76A, for which the self-cleavage was determined as 0.16.

G6A G36A: the self-cleavage stood at 0.19.

Consider U51G C68A, for which the self-cleavage is 0.45.

For the variant G22U U67C, the self-cleavage was determined as 0.06.

Turning to G10A C40U, the self-cleavage worked out at 0.15.

For the variant A45G C68A, the self-cleavage amounted to 0.18.

Regarding A47G C79U, the self-cleavage was 1.12.

Consider G16C A18U, for which the self-cleavage came out at 0.28.

A5G C32A: the self-cleavage stood at 0.28.

In the case of A57G C68U, the self-cleavage was determined as 0.77.

For the variant U26C U51C, the self-cleavage came out at 0.44.

Take U51C: the self-cleavage is 1.04.

With C50U U76C, the self-cleavage was found to be 0.98.

For A5U A20C, the self-cleavage came to 0.49.

On to A45U G63U, for which the self-cleavage was 0.46.

With A15U A64G, the self-cleavage was determined as 0.54.

On to U25C C37A, for which the self-cleavage was 0.46.

For U25A U72A, the self-cleavage was found to be 0.3.

Consider A15U G73A, for which the self-cleavage amounted to 1.24.

Regarding A3U U26G, the self-cleavage was determined as 0.23.

For the variant G36U G42A, the self-cleavage was 0.21.

In the case of C68U U69G, the self-cleavage was found to be 0.39.

For G52A U60C, the self-cleavage is 0.78.

On to G24A G36A, for which the self-cleavage turned out to be 0.15.

Regarding A21G A47U, the self-cleavage amounted to 0.36.

On to U26A G53A, for which the self-cleavage is 1.

Turning to A20U U48A, the self-cleavage is 0.14.

In the case of C29U U41C, the self-cleavage was determined as 0.49.

On to C62U A75C, for which the self-cleavage stood at 0.44.

As for U26A A57U, the self-cleavage was found to be 0.62.

On to U26C C39U, for which the self-cleavage was determined as 0.61.

Take A20C A56C: the self-cleavage amounted to 0.22.

For the variant C40U U51G, the self-cleavage came out at 0.49.

With C4U U78A, the self-cleavage was 0.9.

As to A3C A65U, the self-cleavage was 0.95.

For U25C U31A, the self-cleavage stood at 0.25.

Regarding G22A U69A, the self-cleavage came out at 0.24.

Turning to G10C U54C, the self-cleavage amounted to 0.39.

A65U C81A: the self-cleavage was determined as 0.43.

Take G30U U49A: the self-cleavage was determined as 0.35.

For C37U U66A, the self-cleavage came out at 0.25.

As for G42U U74C, the self-cleavage was determined as 0.35.

For G30C G73A, the self-cleavage came to 0.11.

Regarding U41C G73C, the self-cleavage came to 1.25.

As for U25A G33C, the self-cleavage was 0.19.

As for A28G C68U, the self-cleavage was 0.48.

Take C29A U31A: the self-cleavage was found to be 0.3.

Take C23A U51A: the self-cleavage is 0.37.

For A15G A56G, the self-cleavage came out at 0.62.

Regarding C23A C62U, the self-cleavage was determined as 0.21.

Regarding C34A, the self-cleavage turned out to be 0.34.

With A3G G52A, the self-cleavage stood at 1.14.

Turning to A13G G73A, the self-cleavage is 1.27.

Take U41C C79A: the self-cleavage amounted to 1.21.

Take C32A A45U: the self-cleavage came out at 0.35.

With A45G G46A, the self-cleavage stood at 0.29.

A2C A15U: the self-cleavage amounted to 0.5.

In the case of U67A C79A, the self-cleavage stood at 0.82.

Regarding A15G U74A, the self-cleavage was 1.14.

For the variant U60A A77U, the self-cleavage was found to be 0.52.

For the variant A15G C37A, the self-cleavage came out at 0.11.

Turning to U58C A77C, the self-cleavage stood at 0.26.

Take A28G C50A: the self-cleavage was 0.48.

On to C37U G52A, for which the self-cleavage was found to be 0.93.

In the case of A35U C38A, the self-cleavage amounted to 0.21.

Turning to G7A U48C, the self-cleavage was determined as 0.16.

As to A18G C27U, the self-cleavage was found to be 0.42.

In the case of C11G U74A, the self-cleavage came out at 0.96.

Turning to U31C G52A, the self-cleavage turned out to be 1.06.

Take U48A U80C: the self-cleavage was found to be 0.57.

Regarding G63A A75U, the self-cleavage came out at 0.84.

Consider A3U G61A, for which the self-cleavage turned out to be 1.01.

As for U25C U76G, the self-cleavage stood at 0.45.

For U26C C40A, the self-cleavage worked out at 0.26.

Regarding C59G U74A, the self-cleavage came to 0.37.

Turning to U54A C62A, the self-cleavage is 0.32.

As to U54C U78G, the self-cleavage is 1.07.

Regarding C44A U78A, the self-cleavage came to 0.49.

As to A18G A77G, the self-cleavage was 0.78.

Take C12U U69G: the self-cleavage worked out at 1.18.

As to G53A A57G, the self-cleavage came to 0.97.

For the variant U41A G63A, the self-cleavage turned out to be 0.35.

With A57G G63A, the self-cleavage was 0.84.

As to A21C A35G, the self-cleavage turned out to be 0.39.

Turning to C37U U41A, the self-cleavage amounted to 0.18.

Take A3G C27A: the self-cleavage is 0.45.

Regarding C14G A56G, the self-cleavage is 1.

Regarding G22A A56G, the self-cleavage was found to be 0.17.

For the variant C40A U76C, the self-cleavage worked out at 0.38.

As for A18U G46U, the self-cleavage was found to be 0.2.

Take A2G U66C: the self-cleavage came out at 0.2.

U67G U74C: the self-cleavage is 0.6.

With C39A U69C, the self-cleavage was 0.16.

In the case of A56G U58A, the self-cleavage is 0.32.

On to G33U G61C, for which the self-cleavage is 0.13.

Turning to A21U U60G, the self-cleavage is 0.17.

For the variant C14U A64G, the self-cleavage is 1.17.

Consider C44G U76C, for which the self-cleavage amounted to 0.58.

For C32U A56U, the self-cleavage turned out to be 0.19.

Consider U26C U72A, for which the self-cleavage was determined as 0.36.

As to G10C A21G, the self-cleavage is 0.18.

Consider G10U A21C, for which the self-cleavage amounted to 0.06.

Regarding A18G C34U, the self-cleavage is 0.15.

Turning to U26C A65U, the self-cleavage came to 0.3.

With A56G C81U, the self-cleavage worked out at 1.13.

For U69A U80A, the self-cleavage is 0.74.

G8A U67C: the self-cleavage is 0.22.

Turning to A3U G16A, the self-cleavage came out at 0.43.

Regarding U54C A64C, the self-cleavage was 0.46.

For the variant A35G C68A, the self-cleavage came out at 1.19.

Take A15G U60G: the self-cleavage was 0.34.

Consider A65C U74C, for which the self-cleavage is 0.3.

For the variant G19U A21G, the self-cleavage amounted to 0.2.

As to A45G A56C, the self-cleavage is 0.39.

With G7U C37A, the self-cleavage worked out at 0.17.

For A65U, the self-cleavage came out at 0.33.

Regarding U25G A28G, the self-cleavage amounted to 0.37.

For U51A U58A, the self-cleavage came to 0.3.

For U31C U72A, the self-cleavage was 0.5.

On to U49C G52A, for which the self-cleavage is 0.8.

On to U25C G46C, for which the self-cleavage stood at 0.

A15G C39U: the self-cleavage was found to be 0.98.

As for C27G U49A, the self-cleavage worked out at 0.28.

Consider A5C U80A, for which the self-cleavage is 1.19.

In the case of A13C A65G, the self-cleavage stood at 0.32.

For C4A A47G, the self-cleavage was determined as 1.12.

As for C34U U60A, the self-cleavage turned out to be 0.14.

For A13C G63U, the self-cleavage stood at 0.97.

Turning to A28U U41A, the self-cleavage stood at 0.26.

On to C11A C23G, for which the self-cleavage turned out to be 0.13.

Regarding C44U, the self-cleavage was 0.31.

Regarding U25C A28C, the self-cleavage worked out at 0.15.

As to G6A G61A, the self-cleavage stood at 0.34.

With C40U U69C, the self-cleavage is 0.36.

For the variant C14A C32U, the self-cleavage came to 0.21.
